For orientation: Kd means the constant that tells how readily two partners part at equilibrium. As usually defined, the IC50 is the concentration that inhibits the measured activity by half.

Assay [1] addresses T1, recombinant human MET SEMA domain (human, UniProt P08581 27-515).
T1 construct: domain: SEMA; also called SEMA domain of MET-ECD
Put plainly: plate binding assay, 384-well plates coated with recombinant domains.

For assay [2], the target named is T2, recombinant human MET PSI-IPT domains (human, UniProt P08581 516-932, limits assumed).
T2 construct: domain: PSI-IPT; also called PSI-IST (as printed once)
T2 sequence (P08581 516-932 limits assumed): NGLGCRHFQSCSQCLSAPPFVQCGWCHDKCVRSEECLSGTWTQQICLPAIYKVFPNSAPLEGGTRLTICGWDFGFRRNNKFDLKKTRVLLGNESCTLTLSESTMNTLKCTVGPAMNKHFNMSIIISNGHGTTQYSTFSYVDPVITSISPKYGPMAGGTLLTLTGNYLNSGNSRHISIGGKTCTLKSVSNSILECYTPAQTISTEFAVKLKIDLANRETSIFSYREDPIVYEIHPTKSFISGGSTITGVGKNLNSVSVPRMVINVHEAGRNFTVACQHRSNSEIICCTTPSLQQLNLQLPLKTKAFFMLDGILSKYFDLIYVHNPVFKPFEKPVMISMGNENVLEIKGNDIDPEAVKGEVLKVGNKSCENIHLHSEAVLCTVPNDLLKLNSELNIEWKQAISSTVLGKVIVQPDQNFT
The assay is described as above.

For assay [3], the target named is T3, recombinant human MET extracellular domain (MET ECD) (human, UniProt P08581 25-932).
T3 construct: extracellular domain; also called full-length MET-ECD molecule
T3 sequence (P08581 25-932): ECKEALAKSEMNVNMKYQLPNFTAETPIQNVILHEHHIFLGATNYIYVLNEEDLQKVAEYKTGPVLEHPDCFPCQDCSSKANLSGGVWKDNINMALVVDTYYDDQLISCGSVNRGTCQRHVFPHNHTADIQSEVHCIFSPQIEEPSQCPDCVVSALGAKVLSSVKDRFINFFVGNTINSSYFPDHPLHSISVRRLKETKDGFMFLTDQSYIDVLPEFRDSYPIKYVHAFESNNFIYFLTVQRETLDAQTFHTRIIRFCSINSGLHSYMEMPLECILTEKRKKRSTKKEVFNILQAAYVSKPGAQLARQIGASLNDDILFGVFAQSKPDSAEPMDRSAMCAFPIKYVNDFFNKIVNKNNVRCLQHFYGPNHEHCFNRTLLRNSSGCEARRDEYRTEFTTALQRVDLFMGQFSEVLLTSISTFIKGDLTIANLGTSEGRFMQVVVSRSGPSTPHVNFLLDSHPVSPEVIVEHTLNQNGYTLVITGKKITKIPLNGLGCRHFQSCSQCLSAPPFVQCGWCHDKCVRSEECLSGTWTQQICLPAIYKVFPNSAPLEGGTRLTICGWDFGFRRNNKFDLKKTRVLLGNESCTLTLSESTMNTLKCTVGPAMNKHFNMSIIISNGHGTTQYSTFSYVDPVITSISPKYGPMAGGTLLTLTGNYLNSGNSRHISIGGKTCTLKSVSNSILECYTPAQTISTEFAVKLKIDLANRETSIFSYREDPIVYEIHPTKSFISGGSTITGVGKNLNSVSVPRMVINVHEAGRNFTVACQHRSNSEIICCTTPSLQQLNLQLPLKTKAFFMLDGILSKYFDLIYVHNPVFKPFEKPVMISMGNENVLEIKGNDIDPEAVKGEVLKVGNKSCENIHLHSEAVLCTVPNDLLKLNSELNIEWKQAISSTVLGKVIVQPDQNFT
Put plainly: BIAcore 2000; MET ECD amine-coupled on CM5 chip, antibody injected at 100-1 nM, global fit. For orientation: In SPR one partner is held on a chip, and binding of the other changes the refractive index at the surface.
Description: (§1) Fab and IgG affinities were determined using a BIAcore 2000 instrument. Briefly, MET ECD was immobilized on a CM5 chip using standard amine based chemistry (NHS/EDC). For each Fab and IgG, different concentrations (100-1 nM) were injected over the MET ECD surface and kinetic data were collected over time. The data was fit using the simultaneous global fit equation to yield affinity constants (KD) for each Fab and IgG.

In assay [4] the target is T4, human MET Receptor on cells (human, UniProt P08581 25-1390). Nature of the assay: cell-based or functional assay.
T4 sequence (P08581 25-1390): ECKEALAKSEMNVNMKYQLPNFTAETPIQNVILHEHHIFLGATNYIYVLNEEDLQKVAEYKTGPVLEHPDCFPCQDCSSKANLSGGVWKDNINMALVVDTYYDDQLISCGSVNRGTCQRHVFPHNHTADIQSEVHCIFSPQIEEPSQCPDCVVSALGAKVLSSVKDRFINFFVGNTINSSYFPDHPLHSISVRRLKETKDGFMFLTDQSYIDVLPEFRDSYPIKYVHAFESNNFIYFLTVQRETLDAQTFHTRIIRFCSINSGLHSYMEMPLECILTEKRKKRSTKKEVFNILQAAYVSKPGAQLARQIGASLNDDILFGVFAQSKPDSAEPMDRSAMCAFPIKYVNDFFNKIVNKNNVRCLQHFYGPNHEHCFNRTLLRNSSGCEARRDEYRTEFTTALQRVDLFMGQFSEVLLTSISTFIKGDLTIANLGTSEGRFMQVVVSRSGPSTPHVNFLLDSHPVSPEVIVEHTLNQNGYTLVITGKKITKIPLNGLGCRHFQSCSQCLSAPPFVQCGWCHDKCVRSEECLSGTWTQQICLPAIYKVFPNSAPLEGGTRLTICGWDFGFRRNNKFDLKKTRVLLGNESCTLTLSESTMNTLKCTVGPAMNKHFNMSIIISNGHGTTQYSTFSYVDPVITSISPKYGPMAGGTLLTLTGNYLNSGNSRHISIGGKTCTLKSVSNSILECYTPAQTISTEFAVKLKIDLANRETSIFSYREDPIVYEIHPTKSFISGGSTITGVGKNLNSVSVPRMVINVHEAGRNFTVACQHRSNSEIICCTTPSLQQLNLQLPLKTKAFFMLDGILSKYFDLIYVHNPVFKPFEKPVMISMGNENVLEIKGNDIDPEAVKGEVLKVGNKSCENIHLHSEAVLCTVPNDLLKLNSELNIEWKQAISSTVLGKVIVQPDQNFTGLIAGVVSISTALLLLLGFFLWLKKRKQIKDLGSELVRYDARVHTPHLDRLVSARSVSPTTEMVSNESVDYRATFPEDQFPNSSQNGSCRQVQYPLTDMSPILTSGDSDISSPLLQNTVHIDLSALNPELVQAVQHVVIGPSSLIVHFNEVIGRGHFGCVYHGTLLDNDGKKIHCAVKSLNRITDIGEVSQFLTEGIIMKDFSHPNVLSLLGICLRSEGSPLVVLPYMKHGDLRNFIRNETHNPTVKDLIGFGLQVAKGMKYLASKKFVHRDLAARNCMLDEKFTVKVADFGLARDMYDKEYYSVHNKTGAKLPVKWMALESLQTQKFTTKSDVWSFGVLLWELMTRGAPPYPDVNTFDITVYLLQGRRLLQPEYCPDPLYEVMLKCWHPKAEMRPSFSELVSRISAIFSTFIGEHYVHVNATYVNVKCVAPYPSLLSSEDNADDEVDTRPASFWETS
The target in assay [5] is T4, human MET Receptor on cells. Nature of the assay: FACS on GTL-16 cells; AF647-R28 fixed at 360 nM, against AF647-R28 without R13.
Assay [6] addresses T5, recombinant human MET/Fc chimeric protein (R&D Systems) (human, UniProt P08581 25-932).
T5 construct: extracellular domain; Bought reagent; also called MET Receptor extracellular domain; not shown: Fc part (detected with anti-human Fc) and any linker of the bought chimera
Put plainly: HGF/MET blocking ELISA (Dm=IC50): antibody preincubated with MET/Fc, added to HGF-coated wells; unit from the legend of FIG. 2; FIG. 2A, B experiment.

Assay [7] has as its target T5, recombinant human MET/Fc chimeric …. Nature of the assay: HGF/MET blocking ELISA, experiment of Example 3; unit from the legend of FIG. 3; FIG. 3A experiment, antibody alone.
Description: (§2) After washing the wells once with 0.2% PBS/T, they were blocked with 5% PBS/milk for one hour. […] Washing was repeated as described above. Fifty microliters of substrate were added per well until a yellow color developed. The reaction was then stopped with 50 μL of 1 M H₂SO₄ and the absorbance at 450 nm determined with a standard plate reader.
Assay [8] has the same target. Nature of the assay: HGF/MET blocking ELISA: antibody preincubated with MET/Fc, added to HGF-coated wells; unit from the legend of FIG. 1. A general note: In an ELISA, binding on a coated surface is turned into a signal by an enzyme label.
Description: as §2
Assay [9] has as its target T3, recombinant human MET extracellular …. Nature of the assay: BIAcore 2000; MET ECD amine-coupled on CM5 chip, antibody injected at 100-1 nM, global fit; Dimer, not IgG.
Description: as §1

T5 sequence (P08581 25-932, change not shown): as the sequence (P08581 25-932) above
T1 sequence (P08581 27-515): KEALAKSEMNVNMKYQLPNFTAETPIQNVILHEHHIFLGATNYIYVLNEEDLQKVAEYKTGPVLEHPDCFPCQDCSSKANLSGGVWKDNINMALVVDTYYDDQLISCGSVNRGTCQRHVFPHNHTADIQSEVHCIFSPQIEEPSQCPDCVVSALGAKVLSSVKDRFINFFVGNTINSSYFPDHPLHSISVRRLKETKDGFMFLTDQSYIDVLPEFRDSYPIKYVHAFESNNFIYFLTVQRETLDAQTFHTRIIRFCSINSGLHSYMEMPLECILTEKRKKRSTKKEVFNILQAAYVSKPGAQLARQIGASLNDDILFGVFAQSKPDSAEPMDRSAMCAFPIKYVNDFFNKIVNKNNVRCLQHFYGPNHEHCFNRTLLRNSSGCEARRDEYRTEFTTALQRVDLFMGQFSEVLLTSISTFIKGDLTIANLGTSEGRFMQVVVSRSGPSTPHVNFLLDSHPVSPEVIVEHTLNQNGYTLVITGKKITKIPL

B1: 28-MET human IgG1 antibody (antibody, V domains shown)
VH: QVQLQESGPGLVKPGETLSLTCTVSGGSISGYYWSWIRQAPGKGLEWIGEIYYAGSTLYNPSLKGRVTISVDTSKNQFSLKLSSVTAEDTAVYYCARHYGLDWFGDTGMDVWGQGTLVTVSS
VL: DIELTQPPSVSVAPGQSITISCSGDNLGDKYVHWYQQKPGQAPVLVIYDDNERPSGIPERFSGSNSGNTATLTISGTQAEDEADYYCSAYGSHSGTVFGGGTKLTVLG
notes: Fab variable regions combined with human constant regions to give a full human IgG1; ATCC deposit PTA-9149; also called 28-MET IgG; MET-28 IgG
For B1, the binding result in [1] and in [2] was “no binding” in each case. Further, the Kd in [3] amounted to 47.9 nM. The “EC50 of antibody-dependent cellular cytotoxicity (ADCC) on GTL-16 cells” value in assay [4] worked out at 3770 nM. Also, in [5], the “fold increase of ΔMFI with 20 nM unlabeled R13” value turned out to be 2.6 fold.

B2: 19-MET (divalent dimer of two 28-MET Fabs linked via a helix-loop-helix motif) (other)
VH: B1 VH
VL: B1 VL
notes: also called 19d; dimeric Fab-dHLX of Fab 28
Regarding B2, the Kd in [3] is 8.7 nM. Further, the IC50 in assay [6] was found to be 44.3 nM; in assay [7], 106 nM.

B3: 28-MET monovalent Fab (Fab, V domains shown)
VH: B1 VH
VL: B1 VL
notes: Monovalent human Fab from the Morphosys HuCAL GOLD Fab library; the Fab constant parts are not; also called Fab-28; R28
As to B3, the Kd in [3] turned out to be 49 nM. Moreover, in [8], the IC50 was determined as 36.1 nM.

B4: 13-MET human IgG1 antibody (antibody, V domains shown)
VH: QVQLKESGPALVKPTQTLTLTCTFSGFSLSTSGMVVSWIRQPPGKALEWLAFISWDDDKYYSTSLKTRLTISKDTSKNQVVLTMTNMDPVDTATYYCAREPGRYGGYYFDYWGQGTLVTVSS
VL: DIQMTQSPSSLSASVGDRVTITCRASQTISHYLAWYQQKPGKAPKLLIYAASILQSGVPSRFSGSGSGTDFTLTISSLQPEDFAVYYCQQYSGFPVTFGQGTKVEIKR
notes: Fab variable regions combined with human constant regions to give a full human IgG1; ATCC deposit PTA-9148; also called 13-MET IgG; MET-13 IgG
In the case of B4, the binding result in assay [2] was “no binding”. For the same molecule, the Kd in assay [3] worked out at 0.9 nM. In addition, in assay [4], the “EC50 of antibody-dependent cellular cytotoxicity (ADCC) on GTL-16 cells” value worked out at 479 nM.

B5: 13-MET monovalent Fab (Fab, V domains shown)
VH: B4 VH
VL: B4 VL
notes: Monovalent human Fab from the Morphosys HuCAL GOLD Fab library; the Fab constant parts are not; also called Fab-13; R13
Take B5: the IC50 in assay [8] amounted to 12.4 nM.

B6: 9-MET (divalent dimer of two 13-MET Fabs linked via a helix-loop-helix motif) (other)
VH: B4 VH
VL: DIQMTQSPSSLSASVGDRVTITCRASQTISHYLAWYQQKPGKAPKLLIYAASILQSGVPSRFSGSGSGTDFTLTISSLQPEDFAVYYCQQYSGFPVTFGQGTKVEIKRT
notes: also called 9d; dimeric Fab-dHLX of Fab 13
As for B6, the Kd in assay [9] is 0.56 nM. Also, the IC50 is 5.08 nM in assay [6] and 8.88 nM in assay [7].

The record behind these values is patent US20110142840A1 (ONCOMED PHARMACEUTICALS, published 2011).
